Assay results taken from the supplement of paper PMC10065799, “High-throughput profiling of sequence recognition by tyrosine kinases and SH2 domains using bacterial peptide display” (eLife, 2023).

Columns and labels:
Jak2 = Jak2 (UniProt O60674); experiment: phosphorylation enrichment, bacterial display (enrichment ratio); higher = better substrate or ligand; peptides without Tyr show the background
Fyn = Fyn (UniProt P06241); experiment: as above
Fes = Fes (UniProt P07332); experiment: as above
FGFR1 = FGFR1 (UniProt P11362); experiment: as above
EPHB2 = EPHB2 (UniProt P29323); experiment: as above
EPHB1 = EPHB1 (UniProt P54762); experiment: as above
FGFR3 = FGFR3 (UniProt P22607); experiment: as above
Fer (mouse) = experiment: as above
c-Abl (mouse) = experiment: as above
Hck = Hck (UniProt P08631); experiment: as above
c-Src = experiment: as above
MERTK = MERTK (UniProt Q12866); experiment: as above
AncSZ = experiment: as above
c-Src SH2 = experiment: SH2 binding enrichment of the phosphorylated peptide, bacterial display (enrichment ratio); higher = better substrate or ligand; peptides without Tyr show the background
SHP2-C SH2 = experiment: as above
Grb2 SH2 = Grb2 SH2 (UniProt P62993); experiment: as above
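Throughout, for SH2 binding enrichment of the phosphorylated peptide, bacterial display: peptide library displayed on the E. coli surface as eCPX fusions, selected cells deep-sequenced, score is each peptide's frequency after selection divided by its frequency in the input.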
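Throughout, for phosphorylation enrichment, bacterial display: 11-residue human phosphosite peptides and single-mutation variants displayed on the E. coli surface, counted by deep sequencing, each peptide's frequency after selection divided by its frequency in the unselected input library; frequency after pTyr selection over input frequency; kinase dosed for 20-30% of maximal phosphorylation in three min.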

Fes, sequence (P07332 whole entry, looked up): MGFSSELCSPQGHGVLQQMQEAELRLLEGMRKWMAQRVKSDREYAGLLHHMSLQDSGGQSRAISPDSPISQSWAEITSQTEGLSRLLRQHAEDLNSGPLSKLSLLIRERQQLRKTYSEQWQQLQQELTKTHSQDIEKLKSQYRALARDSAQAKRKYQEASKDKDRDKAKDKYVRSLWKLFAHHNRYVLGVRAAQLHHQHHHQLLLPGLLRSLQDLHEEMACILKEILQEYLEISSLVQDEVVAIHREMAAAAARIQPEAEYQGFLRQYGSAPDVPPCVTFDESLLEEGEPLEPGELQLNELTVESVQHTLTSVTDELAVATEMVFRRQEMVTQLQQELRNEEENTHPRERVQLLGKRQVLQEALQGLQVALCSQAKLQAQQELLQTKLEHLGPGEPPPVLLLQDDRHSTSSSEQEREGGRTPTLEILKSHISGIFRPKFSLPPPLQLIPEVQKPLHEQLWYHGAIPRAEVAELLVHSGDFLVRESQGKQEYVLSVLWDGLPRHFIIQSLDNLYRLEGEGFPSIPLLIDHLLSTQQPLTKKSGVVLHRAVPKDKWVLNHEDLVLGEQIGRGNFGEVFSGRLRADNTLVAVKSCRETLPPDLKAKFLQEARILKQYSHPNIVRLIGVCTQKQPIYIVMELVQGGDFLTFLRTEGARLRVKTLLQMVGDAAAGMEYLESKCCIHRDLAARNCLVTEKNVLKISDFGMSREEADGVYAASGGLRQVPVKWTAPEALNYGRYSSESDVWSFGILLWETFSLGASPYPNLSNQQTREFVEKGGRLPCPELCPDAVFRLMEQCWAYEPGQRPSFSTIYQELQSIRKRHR
Fyn, sequence (P06241 whole entry, looked up): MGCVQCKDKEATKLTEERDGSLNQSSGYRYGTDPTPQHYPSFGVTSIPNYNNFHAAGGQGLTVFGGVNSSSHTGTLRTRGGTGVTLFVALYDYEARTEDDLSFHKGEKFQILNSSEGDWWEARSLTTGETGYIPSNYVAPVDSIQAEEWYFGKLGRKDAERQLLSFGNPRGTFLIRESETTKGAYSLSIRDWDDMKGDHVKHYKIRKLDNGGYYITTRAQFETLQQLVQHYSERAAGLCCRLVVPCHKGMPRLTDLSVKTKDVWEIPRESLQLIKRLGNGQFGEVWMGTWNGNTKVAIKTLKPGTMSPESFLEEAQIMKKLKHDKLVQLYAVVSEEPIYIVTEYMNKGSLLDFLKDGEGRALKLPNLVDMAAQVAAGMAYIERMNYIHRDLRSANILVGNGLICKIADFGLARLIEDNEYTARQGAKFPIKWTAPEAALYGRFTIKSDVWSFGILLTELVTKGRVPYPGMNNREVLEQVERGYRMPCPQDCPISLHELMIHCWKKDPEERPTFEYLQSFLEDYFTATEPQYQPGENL
FGFR1, sequence (P11362 whole entry, looked up): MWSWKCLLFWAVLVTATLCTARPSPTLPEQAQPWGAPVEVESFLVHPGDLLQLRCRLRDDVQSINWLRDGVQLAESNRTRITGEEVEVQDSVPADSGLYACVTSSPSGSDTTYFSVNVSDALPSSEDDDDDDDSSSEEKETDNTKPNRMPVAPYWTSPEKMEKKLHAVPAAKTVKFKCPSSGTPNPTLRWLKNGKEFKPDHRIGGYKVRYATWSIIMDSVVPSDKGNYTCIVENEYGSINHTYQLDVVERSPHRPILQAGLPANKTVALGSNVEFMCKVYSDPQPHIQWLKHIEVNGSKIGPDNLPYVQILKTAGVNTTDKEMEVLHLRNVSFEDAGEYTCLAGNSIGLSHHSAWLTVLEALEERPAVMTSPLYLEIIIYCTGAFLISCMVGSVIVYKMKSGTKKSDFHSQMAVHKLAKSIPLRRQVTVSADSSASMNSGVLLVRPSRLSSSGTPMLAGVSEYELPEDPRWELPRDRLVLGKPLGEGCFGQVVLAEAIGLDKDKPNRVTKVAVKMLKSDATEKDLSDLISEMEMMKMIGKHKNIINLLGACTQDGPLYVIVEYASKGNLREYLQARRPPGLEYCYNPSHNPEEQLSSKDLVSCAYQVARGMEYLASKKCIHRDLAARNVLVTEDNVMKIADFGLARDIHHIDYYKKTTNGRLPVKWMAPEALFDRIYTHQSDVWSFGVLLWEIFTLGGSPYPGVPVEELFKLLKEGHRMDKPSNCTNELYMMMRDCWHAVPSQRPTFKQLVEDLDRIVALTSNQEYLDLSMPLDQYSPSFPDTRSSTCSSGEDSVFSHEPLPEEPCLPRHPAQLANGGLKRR
FGFR3, sequence (P22607 whole entry, looked up): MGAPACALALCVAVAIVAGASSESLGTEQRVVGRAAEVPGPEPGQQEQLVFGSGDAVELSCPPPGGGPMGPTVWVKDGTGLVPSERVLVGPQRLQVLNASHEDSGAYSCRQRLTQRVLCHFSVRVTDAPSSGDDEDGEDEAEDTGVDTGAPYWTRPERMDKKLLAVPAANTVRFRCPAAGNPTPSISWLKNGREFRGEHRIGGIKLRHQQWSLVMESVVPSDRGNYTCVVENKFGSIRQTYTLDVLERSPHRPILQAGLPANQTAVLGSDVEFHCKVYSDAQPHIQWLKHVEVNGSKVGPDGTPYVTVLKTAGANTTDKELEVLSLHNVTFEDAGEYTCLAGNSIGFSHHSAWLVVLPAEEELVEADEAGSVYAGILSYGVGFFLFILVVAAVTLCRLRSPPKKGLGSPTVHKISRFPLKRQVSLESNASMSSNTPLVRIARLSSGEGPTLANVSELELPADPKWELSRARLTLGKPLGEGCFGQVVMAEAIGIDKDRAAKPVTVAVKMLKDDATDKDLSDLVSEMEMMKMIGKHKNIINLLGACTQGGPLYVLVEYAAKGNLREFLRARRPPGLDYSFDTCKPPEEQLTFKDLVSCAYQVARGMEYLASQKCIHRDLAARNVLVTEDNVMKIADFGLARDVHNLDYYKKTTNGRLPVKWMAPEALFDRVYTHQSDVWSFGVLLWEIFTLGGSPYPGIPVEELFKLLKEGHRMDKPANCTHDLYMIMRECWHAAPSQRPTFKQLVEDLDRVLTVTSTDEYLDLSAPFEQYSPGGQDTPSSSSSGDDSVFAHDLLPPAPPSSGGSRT
EPHB2, sequence (P29323 whole entry, looked up): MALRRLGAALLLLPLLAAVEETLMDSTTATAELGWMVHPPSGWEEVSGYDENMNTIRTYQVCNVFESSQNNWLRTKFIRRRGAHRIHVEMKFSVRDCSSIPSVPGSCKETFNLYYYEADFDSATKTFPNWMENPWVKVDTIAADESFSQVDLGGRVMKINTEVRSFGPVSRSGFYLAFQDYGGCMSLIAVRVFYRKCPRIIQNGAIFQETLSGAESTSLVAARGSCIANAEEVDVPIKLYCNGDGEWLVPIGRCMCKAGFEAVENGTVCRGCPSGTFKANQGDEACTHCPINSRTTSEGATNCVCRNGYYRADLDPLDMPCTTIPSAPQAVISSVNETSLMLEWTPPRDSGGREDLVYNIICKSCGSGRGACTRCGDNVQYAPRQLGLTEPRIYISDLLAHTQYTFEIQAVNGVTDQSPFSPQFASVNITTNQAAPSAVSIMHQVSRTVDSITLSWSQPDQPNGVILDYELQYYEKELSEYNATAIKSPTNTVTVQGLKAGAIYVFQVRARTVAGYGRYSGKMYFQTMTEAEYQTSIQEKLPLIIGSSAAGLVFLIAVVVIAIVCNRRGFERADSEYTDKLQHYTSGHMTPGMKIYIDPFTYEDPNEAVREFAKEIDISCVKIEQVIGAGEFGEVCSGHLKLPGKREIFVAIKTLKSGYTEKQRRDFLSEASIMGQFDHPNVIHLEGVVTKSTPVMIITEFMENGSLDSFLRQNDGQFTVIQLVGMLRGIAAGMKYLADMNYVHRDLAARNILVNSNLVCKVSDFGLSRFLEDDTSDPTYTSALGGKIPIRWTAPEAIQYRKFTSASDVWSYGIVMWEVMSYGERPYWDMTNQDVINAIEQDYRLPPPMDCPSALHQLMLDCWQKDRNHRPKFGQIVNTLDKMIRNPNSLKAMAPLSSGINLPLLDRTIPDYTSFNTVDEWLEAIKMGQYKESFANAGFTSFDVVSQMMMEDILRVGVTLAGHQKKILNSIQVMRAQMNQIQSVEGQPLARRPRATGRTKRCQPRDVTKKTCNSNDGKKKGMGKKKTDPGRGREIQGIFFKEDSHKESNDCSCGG
Hck, sequence (P08631 whole entry, looked up): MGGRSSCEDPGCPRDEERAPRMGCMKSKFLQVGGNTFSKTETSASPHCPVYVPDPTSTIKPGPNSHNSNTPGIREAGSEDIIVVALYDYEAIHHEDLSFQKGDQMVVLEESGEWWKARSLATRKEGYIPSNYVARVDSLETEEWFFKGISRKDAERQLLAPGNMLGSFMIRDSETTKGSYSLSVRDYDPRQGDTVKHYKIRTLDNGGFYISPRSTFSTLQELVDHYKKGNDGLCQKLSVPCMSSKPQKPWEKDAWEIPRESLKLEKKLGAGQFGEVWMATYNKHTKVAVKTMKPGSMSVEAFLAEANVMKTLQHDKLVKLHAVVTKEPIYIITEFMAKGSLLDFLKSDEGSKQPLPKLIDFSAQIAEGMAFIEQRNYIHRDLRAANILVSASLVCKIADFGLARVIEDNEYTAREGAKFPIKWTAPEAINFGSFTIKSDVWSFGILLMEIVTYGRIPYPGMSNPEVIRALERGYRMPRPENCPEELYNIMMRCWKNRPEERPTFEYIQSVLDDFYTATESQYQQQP

SH2 binding enrichment (c-Src SH2) | SH2 binding enrichment (SHP2-C SH2) | SH2 binding enrichment (Grb2 SH2) | Sequence | phosphorylation enrichment (Jak2) | phosphorylation enrichment (Fyn) | phosphorylation enrichment (Fes) | phosphorylation enrichment (FGFR1) | phosphorylation enrichment (EPHB2) | phosphorylation enrichment (EPHB1) | phosphorylation enrichment (FGFR3) | phosphorylation enrichment (Fer (mouse)) | phosphorylation enrichment (c-Abl (mouse)) | phosphorylation enrichment (Hck) | phosphorylation enrichment (c-Src) | phosphorylation enrichment (MERTK) | phosphorylation enrichment (AncSZ)
0.768 | 1.23 | 0.89 | LTGIAYGLPHW [SLC22A14_Y291_S292G] | 0.924 | 0.578 | 1.25 | 0.523 | 0.558 | 0.56 | 0.618 | 0.424 | 0.705 | 0.631 | 0.574 | 0.508 | 1.16
1.2 | 1.8 | 2.09 | LVMFIYAIFGM [SCN1A_Y1684] | 1.94 | 1.21 | 1.88 | 0.952 | 1.03 | 1.03 | 1.41 | 1.19 | 1.55 | 0.777 | 1.99 | 1.13 | 1.49
1.67 | 2.28 | 1.74 | LVMFIYDIFGM [SCN1A_Y1684_A1685D] | 1.72 | 8.72 | 3.08 | 1.66 | 2.92 | 2.11 | 1.9 | 3.13 | 1.55 | 5.56 | 6.25 | 5.95 | 5.48

The remaining lines, values behind:

Sequence | SH2 binding enrichment (c-Src SH2) | SH2 binding enrichment (SHP2-C SH2) | SH2 binding enrichment (Grb2 SH2) | phosphorylation enrichment (Jak2) | phosphorylation enrichment (Fyn) | phosphorylation enrichment (Fes) | phosphorylation enrichment (FGFR1) | phosphorylation enrichment (EPHB2) | phosphorylation enrichment (EPHB1) | phosphorylation enrichment (FGFR3) | phosphorylation enrichment (Fer (mouse)) | phosphorylation enrichment (c-Abl (mouse)) | phosphorylation enrichment (Hck) | phosphorylation enrichment (c-Src) | phosphorylation enrichment (MERTK) | phosphorylation enrichment (AncSZ)
LSIQTYSALNF [DES_Y423_P419S] | 1.34 | 1.43 | 0.824 | 1.76 | 4.8 | 2.14 | 0.991 | 4.34 | 3.92 | 1.09 | 2.61 | 1.46 | 6.9 | 5.21 | 6.97 | 1.58
LSVMSYDLGMF [GBA3_Y174] | 0.603 | 0.887 | 0.624 | 1.44 | 0.759 | 1.59 | 0.789 | 0.707 | 0.876 | 1.13 | 0.602 | 1.07 | 0.947 | 0.75 | 0.62 | 1.31
LTDTVYSSSSA [OR4C12_Y71_I67T] | 0.349 | 0.899 | 1.07 | 1.09 | 2.53 | 1.15 | 0.694 | 0.374 | 0.323 | 0.586 | 1.69 | 0.911 | 1.93 | 2.33 | 0.58 | 1.12
LTFPDYLPCSV [SAG_Y129] | 0.472 | 0.739 | 0.748 | 2.91 | 0.427 | 1.44 | 3.74 | 0.601 | 0.879 | 3.07 | 0.715 | 1.13 | 0.479 | 0.535 | 0.463 | 2.34
LVPPRYVRSEI [PKP2_Y194_A195V] | 0.506 | 0.632 | 0.788 | 0.685 | 0.431 | 0.94 | 0.469 | 0.645 | 0.538 | 0.605 | 0.522 | 0.58 | 0.321 | 0.555 | 0.588 | 0.612
LVRPPYSYLAL [FOXI1_Y126_S129L] | 3.64 | 3.61 | 1.06 | 2.16 | 0.438 | 0.645 | 1.62 | 0.536 | 0.63 | 1.33 | 1.23 | 0.757 | 0.678 | 0.498 | 2.78 | 0.602
